Positions count from the first letter of the chain named.
Legend:
Assay in all cases: cell_activity
Settings in all cases: A. thaliana GUS recombination
[1] = target: T1, NLS-I-SceI-AlcR(1-60) (VC-SAH48-8, VC-SAH91-1) (Saccharomyces cerevisiae / Aspergillus nidulans) (UniProt P03882)
T1 sequence: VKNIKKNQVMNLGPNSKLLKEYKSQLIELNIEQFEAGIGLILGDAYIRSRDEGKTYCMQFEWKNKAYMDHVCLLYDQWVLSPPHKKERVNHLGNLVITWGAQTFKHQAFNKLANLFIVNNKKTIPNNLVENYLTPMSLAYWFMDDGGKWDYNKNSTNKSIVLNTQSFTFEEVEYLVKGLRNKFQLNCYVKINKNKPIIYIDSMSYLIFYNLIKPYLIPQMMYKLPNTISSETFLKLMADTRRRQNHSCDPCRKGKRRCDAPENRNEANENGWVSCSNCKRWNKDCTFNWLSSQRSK

[2] = target: T2, NLS-I-SceI C term mod #2-AlcR(1-60) (VC-SAH129-1, SAH127-1) (Saccharomyces cerevisiae / Aspergillus nidulans) (UniProt P03882)
T2 sequence: T1 sequence with T227A, S229A, S230N, E231Q, T232A

[3] = target: T3, NLS-I-SceI C term mod #1-AlcR(1-60) (VC-SAH128-3, SAH126-1) (Saccharomyces cerevisiae / Aspergillus nidulans) (UniProt P03882)
T3 sequence: T1 sequence with S229K

AGCGGCCGCCTAGGGATCCGACAGGTTACGGGGCGGCGACCTCGCGGGTTTTCGCTATTTATGAAAATTTTCCGGTTTAAGGCGTTTCCGTTCTTCTTCGTCATAACTTAATGTTTTTATTTAAAATACCCTCTGAAAAGAAAGGAAACGACAGGTGCATTACCCTGTTATCCCTAGCGGATCCGCACGTTATCCCTAGCGGATCCGCACGTTATCCCTAT (double strand) [combined target site VC-SAH55-22 (#55)]
activity (% blue plants) [1]: 49
activity (% blue plants) [2]: 76
activity (% blue plants) [3]: 100
